In the supplement of paper PMC9732359 one finds protein stability index data, which are given here for 38 sequences.

This data set can be described thus: protein stability index of a GFP-peptide fusion (yeast GPS) (PSI 1-4); higher = more stable; sorted into four equal gates, so the index is relative within each strain. The procedure, abridged:
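For each peptide, the protein stability index sums the read frequency in every gate after multiplying it by the gate number. Read frequencies came from plasmids that were PCR-amplified from each gate and Illumina-sequenced, with reads assigned to strains by barcodes. The gates were four equal bins of GFP/Cherry fluorescence ratio applied to mid-log yeast in leucine-free medium carrying a pooled library of tiled 17-residue yeast protein peptides fused downstream of GFP on a Cherry-expressing plasmid.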

± gives the uncertainty stated by the source.

Take IWLIKCCYFIEWKSNHK [SRB8]: the protein stability index (doa10∆) amounted to 1.69 ± 0.067, the protein stability index (pdr5∆) is 2.12 ± 0.063, the protein stability index (san1∆) is 2.55 ± 0.063 and the protein stability index (ubr1∆) stood at 2.59 ± 0.15.
On to RIIEKSVRRSGALDVEG [RRP45], for which the protein stability index was found to be 2.43 ± 0.07 (doa10∆), 2.65 ± 0.075 (pdr5∆), 2.47 ± 0.11 (san1∆) and 2.53 ± 0.072 (ubr1∆).
Regarding QGLNILEWLENPSNTPD [FAS1], the protein stability index (doa10∆) was determined as 3.2 ± 0.12, the protein stability index (pdr5∆) is 3.06 ± 0.086, the protein stability index (san1∆) is 3.41 ± 0.051 and the protein stability index (ubr1∆) came out at 3.14 ± 0.058.
For KAELIKPIQNGEIIDIS [ARP9], in that order: 3.31 ± 0.087, 3.02 ± 0.1, 3.33 ± 0.067 and 2.92 ± 0.092.
Regarding DNTVRTSANGIVQFTYG [RPO31], the protein stability index by setting is: (doa10∆) 2.67 ± 0.1; (pdr5∆) 2.76 ± 0.1; (san1∆) 2.25 ± 0.17; (ubr1∆) 2.53 ± 0.11.
QGNYPTTSYIKEQENIT [DPB4]: the protein stability index (doa10∆) is 3 ± 0.06, the protein stability index (pdr5∆) amounted to 3.1 ± 0.06, the protein stability index (san1∆) was found to be 3.02 ± 0.041 and the protein stability index (ubr1∆) was found to be 3.18 ± 0.075.
In the case of LAFYQVTPEEDEEEDEE [RPL22A], the protein stability index by setting is: (doa10∆) 3.14 ± 0.1; (pdr5∆) 3.45 ± 0.12; (san1∆) 3.61 ± 0.06; (ubr1∆) 3.38 ± 0.11.
For NMVRNNNNNTIDESMPD [GRR1], in that order: 2.83 ± 0.057, 3.12 ± 0.061, 3.02 ± 0.074 and 3.12 ± 0.052.
The like results for GNMGITTEMLDKLMVTS [MED6] were, in that order, 3.36 ± 0.1, 3.55 ± 0.1, 3.26 ± 0.068 and 3.07 ± 0.11.
Regarding DLVHIKDSLDNTFVTRL [RPS4A], the protein stability index by setting is: (doa10∆) 2.79 ± 0.12; (pdr5∆) 2.83 ± 0.091; (san1∆) 3 ± 0.094; (ubr1∆) 3.04 ± 0.058.
The like results for TLVEIFLERKCVHMVYE [SSN3] were, in that order, 1.35 ± 0.063, 1.7 ± 0.071, 1.52 ± 0.11 and 1.75 ± 0.048.
For KMSVTCNAQPITRSVMR [BRR2], in that order: 2.47 ± 0.06, 2.67 ± 0.057, 2.72 ± 0.056 and 2.5 ± 0.037.
For RNEQVTIELKNGTTVWG [SMD1], in that order: 1.23 ± 0.099, 1.78 ± 0.11, 1.49 ± 0.24 and 1.16 ± 0.094.
As to IYPRTVIDIEIHVLEQD [SKI6], the protein stability index by setting is: (doa10∆) 1.42 ± 0.055; (pdr5∆) 1.88 ± 0.049; (san1∆) 1.6 ± 0.15; (ubr1∆) 1.83 ± 0.041.
For CAEGIFVVKLDTVDRLI [GAL11], in that order: 2.89 ± 0.12, 3.13 ± 0.11, 3.02 ± 0.13 and 2.62 ± 0.092.
For TSAKEPSENDVFYRMQQ [RPO31], in that order: 3.08 ± 0.082, 3.08 ± 0.092, 3.13 ± 0.14 and 2.7 ± 0.099.
The like results for TEKDDNKTNNEDLFDDY [NUT1] were, in that order, 2.92 ± 0.055, 3.25 ± 0.053, 3.01 ± 0.052 and 3.08 ± 0.049.
For HDADLEVSMNSIFAMGL [RPN1], the protein stability index reads like this: (doa10∆) 1.85 ± 0.038; (pdr5∆) 2.69 ± 0.045; (san1∆) 2.65 ± 0.047; (ubr1∆) 2.4 ± 0.034.
LTRQPTEGRSRDGGLRL [RET1] registered a protein stability index (doa10∆) of 2.07 ± 0.07, a protein stability index (pdr5∆) of 2.14 ± 0.077, a protein stability index (san1∆) of 2.06 ± 0.15 and a protein stability index (ubr1∆) of 2.01 ± 0.059.
Take ASLVDYVQVRQPIFVAH [RPS5]: the protein stability index is, setting by setting: (doa10∆) 1.99 ± 0.1; (pdr5∆) 1.98 ± 0.069; (san1∆) 2.1 ± 0.14; (ubr1∆) 1.67 ± 0.11.
As for HAKFSPVSTASYRLLPQ [RPC40], the protein stability index is 1.71 ± 0.076 (doa10∆), 1.75 ± 0.055 (pdr5∆), 1.84 ± 0.089 (san1∆) and 2.23 ± 0.077 (ubr1∆).
As for LYHHTTKTILSGTDGST [SRP72], the protein stability index is, setting by setting: (doa10∆) 3.04 ± 0.068; (pdr5∆) 2.82 ± 0.051; (san1∆) 2.49 ± 0.088; (ubr1∆) 2.83 ± 0.043.
In the case of QQLLKGLSLSFSKKLDL [DSN1], the protein stability index reads like this: (doa10∆) 3.13 ± 0.076; (pdr5∆) 3.1 ± 0.088; (san1∆) 2.74 ± 0.069; (ubr1∆) 3.16 ± 0.075.
In the case of ARHKKKVENLDYMYENG [YML031W/NDC1], the protein stability index is, setting by setting: (doa10∆) 3.41 ± 0.15; (pdr5∆) 3.37 ± 0.14; (san1∆) 3.08 ± 0.12.
Take IPTKESLTRDFEQCCKE [YIL149C/MLP2]: the protein stability index reads like this: (doa10∆) 2.81 ± 0.078; (pdr5∆) 2.96 ± 0.13; (san1∆) 2.62 ± 0.088; (ubr1∆) 2.88 ± 0.13.
Consider LVGSWKKDRATGDADEP [RPO21], for which the protein stability index (doa10∆) came to 3.14 ± 0.22, the protein stability index (pdr5∆) was found to be 3.55 ± 0.11, the protein stability index (san1∆) came to 3.15 ± 0.11 and the protein stability index (ubr1∆) worked out at 3.46 ± 0.081.
DFSARTVISGDPNLELD [RPO21] showed a protein stability index (doa10∆) of 3.29 ± 0.22, a protein stability index (pdr5∆) of 2.79 ± 0.21, a protein stability index (san1∆) of 2.58 ± 0.15 and a protein stability index (ubr1∆) of 2.47 ± 0.13.
The like results for TVKFKHMDYDGNIVKEF [YMR129W/POM152] were, in that order, 2.89 ± 0.079, 2.39 ± 0.043, 2.67 ± 0.094 and 2.99 ± 0.05.
In the case of SASLFKQRKNPRRIAWT [RPL24A], the protein stability index by setting is: (doa10∆) 2.55 ± 0.11; (pdr5∆) 2.9 ± 0.097; (san1∆) 2.96 ± 0.087; (ubr1∆) 3.08 ± 0.059.
As to IIVKDKSNDSEGDFLKS [POP1], the protein stability index was determined as 3.06 ± 0.3 (doa10∆) and 3.14 ± 0.11 (san1∆).
FVNGVWHGVHRNPARLM [RPB2]: the protein stability index by setting is: (doa10∆) 1.68 ± 0.11; (pdr5∆) 1.44 ± 0.067; (san1∆) 3.39 ± 0.058; (ubr1∆) 1.5 ± 0.042.
For MSDLFTFDWFIKTRTVH [ISW2], in that order: 2.88 ± 0.099, 3.17 ± 0.099, 2.76 ± 0.093 and 3.21 ± 0.072.
For QQQPQPQYNMNMGMNNM [PGD1], in that order: 3.02 ± 0.049, 2.77 ± 0.05, 3.29 ± 0.041 and 2.89 ± 0.069.
FMAFINACAKYGRDDME [ISW2] registered a protein stability index (doa10∆) of 2.77 ± 0.2.
For LPSSNGSSRIIASDGSE [RRP42], the protein stability index reads like this: (doa10∆) 3.08 ± 0.091; (pdr5∆) 2.86 ± 0.11; (san1∆) 3.17 ± 0.11; (ubr1∆) 2.74 ± 0.085.
For ANIELTWAEGTFEQFKD [RPC37], in that order: 3.25 ± 0.12, 3.18 ± 0.076, 3.31 ± 0.16 and 3.32 ± 0.093.
For LLFNNDFPLLKVLAAHT [RRP40], in that order: 1.23 ± 0.13, 1.25 ± 0.11, 1.18 ± 0.12 and 1.09 ± 0.058.
For GAGSIFTSHTRLRQGAA [RPL2A], in that order: 3.05 ± 0.1, 3.2 ± 0.088, 3.17 ± 0.049 and 3.25 ± 0.072.
